According to US20110293526A1, “COMPOSITIONS AND METHODS TO MODULATE HAIR GROWTH” (University of Southern California, priority 2008, published 2011):

B1: human BMP4: Recombinant human BMP4 protein obtained from R&D Systems (protein, UniProt P12644 293-408, looked up)
Bone morphogenetic protein 4: SPKHHSQRARKKNKNCRRHSLYVDFSDVGWNDWIVAPPGYQAFYCHGDCPFPLADHLNSTNHAIVQTLVNSVNSSIPKACCVPTELSAISMLYLDEYDKVVLKNYQEMVVEGCGCR

Tests used:
[1] = DMSO; cited from earlier work
[2] = in published reports; cited from earlier work
competent telogen skin = test: Protein administration experiment: human BMP4-soaked beads implanted into competent telogen skin ahead of an anagen-spreading wave; format: in vivo, mice; settings: for propagation of the anagen-spreading (hair propagation) wave around the beads: beads soaked in human BMP4 1 mg per ml, implanted in competent telogen skin of adult mice, protein replenished every 24 h, twelve days later, versus control BSA/albumin beads
Experimental: Intracutaneous administration of exogenous protein was performed as follows. Affinity chromatography Affi-gel blue gel beads were obtained from Biorad. Beads were washed in 1×PBS, followed by drying. The beads were then re-suspended in 5 μl protein solution, either control (BSA 1 mg ml^−1) or experimental (human BMP4 1 mg per ml), at 4° C. for 30 min. Recombinant human BMP4 protein was obtained from R&D Systems. Reconstitution of the protein was performed in 4 mM HCl in 0.2% BSA as per the manufacturer's guidelines. Approximately 100 beads were introduced to the competent telogen skin of adult mice by means of a single puncture wound to the skin made by a 30 g syringe (insulin syringe). To replenish proteins, subsequent doses of 1.5 μl protein solution were microinjected to the site of the bead implantation every 24 h by means of a glass micro-needle until the tissue was harvested. After the anagen-spreading wave was noted to pass beyond the bead implantation sites (1 week in the case of FIGS. 2g, h), the skin was collected and inverted for photography. This allows the study of the anagen-wave-spreading dynamics around the control and human BMP4 beads.
Finally, it was tested whether a direct local delivery of BMP protein can convert competent telogen status to refractory in normal mice. Human-BMP4-soaked beads were implanted into competent telogen skin ahead of an anagen-spreading wave (see Methods in Botchkarev et al. (2001) FASEB J. 15:2205-14). […] Thus, the level of BMP activity can indeed explain the functional status (refractory versus competent) of a skin region.

| Molecule | solubility [1] | toxicity [2] | propagation of the anagen-spreading (hair propagation) wave around the beads (competent telogen skin) | propagation of the anagen-spreading (hair propagation) wave around the beads (competent telogen skin; listed as Human-BMP4) | propagation of the anagen-spreading (hair propagation) wave around the beads (competent telogen skin; listed as hBMP4) | status of treated skin and hair regeneration after intracutaneous delivery (competent telogen skin; delivered intracutaneously via single glass microneedle during competent telogen phase) |
| --- | --- | --- | --- | --- | --- | --- |
| c1cc(-c2cnn3cc(-c4ccc(OCCN5CCCCC5)cc4)cnc23)ccn1 [Dorsomorphin] | soluble in DMSO | low toxicity |  |  |  |  |
| B1 |  |  | prevented the propagation of the wave around the beads | caused hair propagation wave (solid arrow) to go around them, creating a new telogen domain | caused hair propagation wave (solid arrowed curve) to go around them, creating a new telogen domain | rendered treated skin refractory and prevented hair regeneration |
